Source: patent US20230331827A1, “POTASSIUM CHANNEL INHIBITORS” (priority 2017, published 2023)
Substitutions are numbered along the chain they refer to.

B1: KB_A01 (scFv on phage) (scFv, V domains shown)
VH: EVQLVESGGGLVRPGGSLRLSCAASGFTFSSYAMSWVRQAPGKGLEWVSAISGSGGSTYYADSVKGRFTISRDNTKNSLYLQMTSLRADDTAFYYCVKDFGPGYGTGWFDYWGPGTLVTVSS
VL: YLNWYQQKPGKAPKLLIYAAEVCPRILMRCKQDSDCLAGCVCGPNGFCGGTSGVPSRFSGSRSGTEFTLTISSLQPEDFATYYCQKVDDYPLTFGGGTKVEIKR
B2: KB_A02 (scFv on phage) (scFv, V domains shown)
VH: B1 VH
VL: AVNWYQQLPGKAPKLLIYAAAKCPRILMRCKQDSDCLAGCVCGPNGFCGGASGVSDRFSGSIDSSSNSASLTISGLKPEDEGDYYCQSYDSSNRWVFGGGTKVTVLG
B3: KB_A03 (scFv on phage) (scFv, V domains shown)
VH: B1 VH
VL: AVNWYQQLPGKAPKLLINAADRCPRILMRCKQDSDCLAGCVCGPNGFCGTNSGVPDRFSGSSSGNTASLTITGAQAEDEADYYCNSRDSSGNNWVFGGGTKVTVLG
B4: KB_A05 (scFv on phage) (scFv, V domains shown)
VH: B1 VH
VL: AVNWYQQLPGKAPKLLIYAADKCPRILMRCKQDSDCLAGCVCGPNGFCGGGSGIPERFSGSKSGTSASLAISGLRSEDEADYYCATWDDNLNGVVFGGGTKLTVLG
B5: KB_A06 (scFv on phage) (scFv, V domains shown)
VH: B1 VH
VL: AVNWYQQLPGKAPKLLIYAAVRCPRILMRCKQDSDCLAGCVCGPNGFCGTPSGIPERFSGSIDRSTNSASLTISGLKTEDEADYYCQSYDSSNLNWVFGGGTKLTVLG
B6: KB_A09 (scFv on phage) (scFv, V domains shown)
VH: B1 VH
VL: AVNWYQQLPGKAPKLLIYAAERCPRILMRCKQDSDCLAGCVCGPNGFCGTPSGVPDRFSGSIDTFSNSASLTISGLKTEDEADYYCQSYDSSHHWVFGGGTKLTVLG
B7: KB_A10 (scFv on phage) (scFv, V domains shown)
VH: B1 VH
VL: AVNWYQQLPGKAPKLLIYAAGGCPRILMRCKQDSDCLAGCVCGPNGFCGSNSGVPDRFSGSKSGNTASLTISGLQSEDEADYYCAAWDDSLSGVVFGGGTQLTVLG
B8: KB_A11 (scFv on phage) (scFv, V domains shown)
VH: B1 VH
VL: YLNWYQQKPGKAPKLLIYAAEICPRILMRCKQDSDCLAGCVCGPNGFCGPSSGIPARFSGSGYGTDFTLTINNIESEDAAYYFCLQHDNFPYTFGQGTKVEIKR
B9: KB_B01 (scFv on phage) (scFv, V domains shown)
VH: B1 VH
VL: AVNWYQQLPGKAPKLLIYAAAGCPRILMRCKQDSDCLAGCVCGPNGFCGTRSGVSDRFSGSKSGTSASLAISGLRSEDEADYYCAAWDDSLRAYVFGTGTKLTVLG
B10: KB_B02 (scFv on phage) (scFv, V domains shown)
VH: B1 VH
VL: B7 VL with G21V, S50T, N51G, V54I, D56E, S76A, A80G, V94P, Q101K
B11: KB_C07 (scFv on phage) (scFv, V domains shown)
VH: B1 VH
VL: B9 VL with A21V, T50S, R51A, A86S, A93G, L102V
B12: KB_C08 (scFv on phage) (scFv, V domains shown)
VH: B1 VH
VL: B4 VL with D21A, K22V, G50T, G51R, S68F, T86A, N90S, N92S
B13: KB_C09 (scFv on phage) (scFv, V domains shown)
VH: B1 VH
VL: B6 VL with E21G, T50G, P51G, T64S, F65S, K77R, T78A, H93N
B14: KB_C10 (scFv on phage) (scFv, V domains shown)
VH: B1 VH
VL: AVNWYQQLPGKAPKLLIYAAGPCPRILMRCKQDSDCLAGCVCGPNGFCGADSGVSDRFSGSKSGTSASLAITGLQAEDEGDYYCAAWDDSLNGLVFGGGTKVTVLG
B15: KB_B10 (scFv on phage) (scFv, V domains shown)
VH: B1 VH
VL: QSVLTQLPSVSEAPRQRVTITCGRAMCPRILMRCKQDSDCLAGCVCGPNGFCGTGNWYQQHPGKAPKLIIFDVSKRPSGVPDRFSASKSGNTASLTISGLQAEDEADYYCNSYTSSNTWVFGGGTQLTVLG
B16: KB_B11 (scFv on phage) (scFv, V domains shown)
VH: B1 VH
VL: TQPPSVSEAPRQRVTITCGSRPCPRILMRCKQDSDCLAGCVCGPNGFCGSHNWYQQLPGSSPTTVIYEDNQRPSGVPDRFSGSIDRSSNSASLTISGLKTEDEADYYCQSYDSSNHRVVFGGGTKLTVLG
B17: KB_B12 (scFv on phage) (scFv, V domains shown)
VH: B1 VH
VL: TQPPSVSEAPRQRVTITCGERPCPRILMRCKQDSDCLAGCVCGPNGFCGANNWYQQLPGSSPTTVIYEDNQRPSGVPDRFSGSIDSSSNSASLTISGLKTEDEADYYCQSYDSSNQVFGGGTKVTVLG
B18: KB_A01 Fab (Fab, V domains shown)
VH: B1 VH
VL: B1 VL
B19: KB_A02 Fab (Fab, V domains shown)
VH: B1 VH
VL: B2 VL
B20: KB_A05 Fab (Fab, V domains shown)
VH: EVQLVESGGGLVRPGGSLRLSCAASGFTFSSYAMSWVRQAPGKGLEWVSAISGSGGSTYYADSVKGRFTISRDNTKNSLYLQMTSLRADDTAFYYCVDFGPGYGTGWFDYWGPGTLVTVSS
VL: B4 VL
B21: KB_A06 Fab (Fab, V domains shown)
VH: B1 VH
VL: B5 VL
B22: KB_A07 Fab (Fab, V domains shown)
VH: B1 VH
VL: YLNWYQQKPGKAPKLLIYAAGVCPRILMRCKQDSDCLAGCVCGPNGFCGSRSGVPSRFSGSGSGTDFTLTISSLQPEDFATYYCQQGASPPYTFGQGTKVEIKR
B23: KB_A09 Fab (Fab, V domains shown)
VH: B1 VH
VL: B6 VL
B24: KB_A10 Fab (Fab, V domains shown)
VH: B1 VH
VL: B7 VL
B25: KB_A07_ShK (antibody, V domains shown)
VH: B1 VH
VL: NWYQQKPGKAPKLLIYAAGVRSCIDTIPKSRCTAFQCKHSMKYRLSFCRKTCGTCSRSGVPSRFSGSGSGTDFTLTISSLQPEDFATYYCQQGASPPYTFGQGTKVEIKR
B26: KB_A07_MoKa-1 (antibody, V domains shown)
VH: B1 VH
VL: DIQMTQSPSSLSASVGDRVTITCRASQSISSYLNWYQQKPGKAPKLLIYAAGVINVKCSLPQQCIKPCKDAGMRFGKCMNKKCRCYSSRSGVPSRFSGSGSGTDFTLTISSLQPEDFATYYCQQGASPPYTFGQGTKVEIKRT
B27: KB_A07_KTX (antibody, V domains shown)
VH: B1 VH
VL: DIQMTQSPSSLSASVGDRVTITCRASQSISSYLNWYQQKPGKAPKLLIYAAGVGVEINVKCSGSPQCLKPCKDAGMRFGKCMNRKCHCTPKSRSGVPSRFSGSGSGTDFTLTISSLQPEDFATYYCQQGASPPYTFGQGTKVEIKR

Biological target: trypsin
Assay: phage TRF on trypsin

Binder	Tryspin binding signal (FU)
B1	20200 FU
B2	183000 FU
B3	28700 FU
B4	121000 FU
B5	24400 FU
B6	57700 FU
B7	38800 FU
B8	16400 FU
B9	57700 FU
B10	116000 FU
B11	43300 FU
B12	76800 FU
B13	89400 FU
B14	119000 FU
B15	9270 FU
B16	10300 FU
B17	17400 FU

Biological target: trypsin
Assay: TRF, 2.4 ug/mL Fab on trypsin

Binder	TRF signal
B18	16600
B19	221000
B20	65400
B21	212000
B22	201000
B23	84100
B24	71900

Biological target: trypsin
Assay: TRF, 10 ug/mL Fab on trypsin

Binder	TRF signal
B18	55600
B19	255000
B20	218000
B21	242000
B22	226000
B23	161000
B24	68700

Biological target: trypsin
Assay: TRF, 0.6 ug/mL Fab on trypsin

Binder	TRF signal
B18	2390
B19	93800
B20	46700
B21	108000
B22	108000
B23	21000
B24	14600

Biological target: human Kv1.3 (human) (UniProt P22001)
Assay: cell-based or functional assay

human Kv1.3 (human), sequence (P22001 whole entry): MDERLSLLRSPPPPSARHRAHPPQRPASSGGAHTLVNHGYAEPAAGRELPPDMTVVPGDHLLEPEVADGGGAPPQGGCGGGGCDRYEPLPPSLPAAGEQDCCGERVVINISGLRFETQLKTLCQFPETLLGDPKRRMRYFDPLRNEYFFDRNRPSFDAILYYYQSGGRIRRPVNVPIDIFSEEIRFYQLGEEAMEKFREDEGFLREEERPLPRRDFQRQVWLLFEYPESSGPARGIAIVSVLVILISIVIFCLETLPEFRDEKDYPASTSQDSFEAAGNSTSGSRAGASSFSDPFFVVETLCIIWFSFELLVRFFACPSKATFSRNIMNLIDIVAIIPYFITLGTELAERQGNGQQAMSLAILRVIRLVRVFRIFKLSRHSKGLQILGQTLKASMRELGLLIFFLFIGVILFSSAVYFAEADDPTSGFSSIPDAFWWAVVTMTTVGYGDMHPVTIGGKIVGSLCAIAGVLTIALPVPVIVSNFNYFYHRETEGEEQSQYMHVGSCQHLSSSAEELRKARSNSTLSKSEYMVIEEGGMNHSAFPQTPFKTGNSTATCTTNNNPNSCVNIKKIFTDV

Binder	IC50, huKv1.3 current, QPatch patch clamp
B25	40 nM
B26	> 10000 nM
B27	900 nM
